Experimental data published in patent US10429300B2, “Surface plasmon resonance approach to monitor protein-ligand interactions” (The Johns Hopkins University, priority 2015, dated 2019).
Entries after “also recorded” stand apart in the source; their conditions may differ.

B1: AaHII: Nav channel-selective α-scorpion toxin from Androctonus australis hector; model toxin (protein)
chain: VKDGYIVDDVNCTYFCGRNAYCNEECTKLKGESGYCQWASPYGNACYCYKLPDHVRTKGPGRCH
B2: CssIV: β-scorpion toxin from Centruroides suffusus suffusus (protein)
chain: KEGYLVNSYTGCKFECFKLGDNDYCLRECRQQYGKGSGGYCYAFGCWCTHLYEQAVVWPLPNKTCN

Legend:
[1] = target: rNav1.2a/Kv2.1 VSD IV paddle chimera; test: Two-electrode voltage-clamp, rNav1.2a/Kv2.1 VSD IV paddle chimera in Xenopus oocytes; format: cell-based, rat
From the text: The DNA sequence of rat (r)Nav1.2a (provided by A. Goldin, University of California, Irvine, Irvine, Calif.), rKv2.1 (provided by K. J. Swartz, National Institutes of Health), and the rNav1.2a/Kv2.1 VSD II or IV chimera was confirmed by automated DNA sequencing, and cRNA was synthesized using T7 polymerase (mMessage mMachine™ kit; Life Technologies) after linearizing the DNA with appropriate restriction enzymes. Channels were expressed in Xenopus oocytes (obtained from Xenopus 1) and studied after a 1-d incubation after cRNA injection (incubated at 17° C. in 96 mM NaCl, 2 mM KCl, 5 mM HEPES, 1 mM MgCl2, 1.8 mM CaCl2, and 50 μg/ml gentamycin, pH 7.6 with NaOH) using two-electrode voltage-clamp recording techniques (OC-725C; Warner Instruments) with a 150-μl recording chamber. Data were filtered at 4 kHz and digitized at 20 kHz using pClamp™ 10 software (Molecular Devices). Microelectrode resistances were 0.5-1.5 MΩ when filled with 3 M KCl. For Kv chimera channel experiments, the external recording solution contained (mM): 50 KCl, 50 NaCl, 5 HEPES, 1 MgCl2, and 0.3 CaCl2, pH 7.6 with NaOH. For rNav1.2a experiments, the external recording solution contained (mM): 100 NaCl, 5 HEPES, 1 MgCl2, and 1.8 CaCl2, pH 7.6 with NaOH. All experiments were performed at ˜22° C. Leak and background conductances, identified by blocking the channel with agitoxin-2 (provided by K. J. Swartz), have been subtracted for all of the Kv channel currents shown. […] Voltage-activation relationships were obtained by measuring tail currents for Kv channels or steady-state currents and calculating conductance for Nav channels, and a single Boltzmann function was fitted to the data according to I/Imax=[1c+cexp(−zF(Vc−cV1/2)/RT)]^−1, where I/Imax is the normalized tail-current amplitude, z is the equivalent charge, V1/2 is the half-activation voltage, F is Faraday's constant, R is the gas constant, and T is temperature in kelvin. For all channels, voltage-activation relationships were recorded in the absence and presence of toxin. The ratio of currents (I/I0) recorded in the presence (I) and absence (I0) of toxin was calculated for voltages typically ranging from −140 to 10 cmV, depending on the construct. […] The apparent equilibrium dissociation constant (apparent KD) for Kv channels was calculated according to KD=((1/(1c−cFu^1/4))c−c1)[toxin], assuming four independent toxin-binding sites per channel. Results are given as mean±SEM unless noted otherwise. Offline data analysis was performed using Clampfit 10™ (Molecular Devices), Origin 8.0™ (OriginLab), and Excel™ (Microsoft). All chemicals were obtained from Sigma-Aldrich.
Representative sodium currents were elicited by a 50-ms depolarization to a suitable membrane voltage (−20 to −15 mV) before (black) and after toxin addition (green) from a holding voltage of −90 mV. […] For each toxin, K^+ currents were elicited by a 300-ms depolarization to 0 mV from a holding voltage of −90 mV (tail voltage was −60 mV). […] For each toxin, K^+ currents (top) were elicited by a 300-ms depolarization near the foot of the voltage-activation curve (bottom) from a holding voltage of −90 mV.

[2] = target: T1, rNav1.2a VSD II paddle peptide (V843A, SEQ ID NO: 2) (Rattus norvegicus, UniProt P04775, V843A); test: SPR on immobilized rNav1.2a VSD II paddle peptide; format: binding; details: for SPR binding to VSD II paddle peptide: 100 nM toxin, 500 fmol peptide
T1 construct: purchased ProteoGenix; host or cells: chemical synthesis (Fmoc solid phase)
T1 sequence (P04775 832-856 V843A): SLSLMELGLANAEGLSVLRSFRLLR
Description: SPR experiments were performed at 25° C. on a Biacore™ T200 instrument (GE Healthcare) using 150 mM NaCl, 3 mM EDTA, 0.005% surfactant P20, and 10 mM HEPES-NaOH, pH 7.4, for the coupling protocol or 50 mM phosphate, pH 7.2, as running buffer. Neutravidin (Thermo Fisher Scientific) was immobilized on CM5 sensor chips (GE Healthcare) using an amine coupling chemistry. All chemicals were obtained from Sigma-Aldrich. […] In all SPR experiments, nonspecific binding obtained in the control flow cell was subtracted from the signal obtained in the experimental flow cell. For qualitative binding analysis, toxins (100 nM in running buffer containing 0.1% BSA) were injected at a flow rate of 20 μl/min over 2 min. […] In between injections, the surface of the sensor chip was regenerated by injecting 1 M NaCl (15 s at 30 l/min). The bulk signal caused by refractive index differences between the flow buffer and the buffer containing the analyte was systematically excluded from the data-fitting process. It is worth noting that isolating a paddle motif (ligand) can induce conformational changes that can affect toxin (analyte) efficacy. […] Sensorgrams can reveal such ligand heterogeneity by displaying biphasic dissociation curves that cannot be fitted with the frequently used Langmuir model, which assumes a 1:1 stoichiometry of analyte to ligand. To account for a possible heterogeneity of surface sites, we calculated the rate constants and affinity equilibrium dissociation constants (KD) for AaHII by a fit to a heterogeneous ligand model incorporated into the Biacore T200 Evaluation™ software (v1.0). This model assumes the presence of two sites on the ligand that can bind analyte and can be described by these equations in which A represents the analyte and B1/B2 represents the heterogeneous ligand:
(A) Shown are the CD spectra of the rNav1.2a VSD II and IV paddle peptides used in this paper. […] (B) Representative association and dissociation kinetic curves obtained using SPR after the application of varying concentrations of AaHII (15-2,000 nM) over a sensor chip to which 50 fmol of the rNav1.2a VSD IV paddle peptide was linked. Toxin was applied after obtaining a steady baseline. Colored traces represent toxin binding obtained after subtraction of the signal from the control flow cell. […] Toxin concentrations are indicated on the right in a shade of gray corresponding to the sensorgram. (C) Representative SPR traces after the application of 100 nM KTX, AaHI, AaHII, LqqV, BomIV, TsVII, and CssIV over a sensor chip to which the rNav1.2a VSD II (left) or IV (right) paddle peptide (500 fmol) was linked. Toxin was applied after obtaining a steady baseline. (D) Binding capacities of 100 nM α-scorpion toxins AaHI, AaHII, LqqV, the α-like scorpion toxin BomIV, and the β-scorpion toxins TsVII and CssIV to the VSD II and IV paddle motifs using SPR (error bars represent±SEM). Y-axis represents the maximum RUs obtained after toxin application.
Next, the VSD IV peptide was fixed on SPR sensor chips by adding a K-linked biotin group to the C terminus, resulting in a 32-amino acid peptide altogether (SEQ ID NO: 4 which is mutated SEQ ID NO: 3 of FIG. 2A).

rNav1.2a = details: cited from earlier work

Chain of rNav1.2a/Kv2.1 VSD IV paddle chimera (P04775 1605-1636 limits assumed, stated change not applied): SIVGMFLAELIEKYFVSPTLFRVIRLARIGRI

Row | Molecule | Kd ([1]; 100 nM AaHII, n=3, mean±SEM, read-out: apparent KD) | K+ current inhibition of VSD IV chimera ([1]; 100 nM toxin) | SPR binding to VSD II paddle peptide [2] | SPR effect on VSD II paddle motif ([2]; up to 20 μM toxin) | Kd (rNav1.2a; WT rNav1.2a, read-out: affinity of the toxin for WT rNav1.2a) | effect on VSD IV chimera voltage-activation relationship ([1]; 1 μM toxin) | effect on WT rNav1.2a gating (rNav1.2a; 100 nM toxin)
1 | B1 | 1010 nM | influenced less; also recorded: influenced to a much lesser extent | a response was not obtained | not noticed | ~5 nM |  | 
2 | B2 |  |  | no RUs could be detected |  |  | does not influence | clearly influences WT rNav1.2a gating
